Laboratory results taken from IntAct's records for PubMed 18480252.

B1: [PIN+] prion protein RNQ1 (Saccharomyces cerevisiae), P25367 (parent)
chain: MDTDKLISEAESHFSQGNHAEAVAKLTSAAQSNPNDEQMSTIESLIQKIAGYVMDNRSGGSDASQDRAAGGGSSFMNTLMADSKGSSQTQLGKLALLATVMTHSSNKGSSNRGFDVGTVMSMLSGSGGGSQSMGASGLAALASQFFKSGNNSQGQGQGQGQGQGQGQGQGQGSFTALASLASSFMNSNNNNQQGQNQSSGGSSFGALASMASSFMHSNNNQNSNNSQQGYNQSYQNGNQNSQGYNNQQYQGGNGGYQQQQGQSGGAFSSLASMAQSYLGGGQTQSNQQQYNQQGQNNQQQYQQQGQNYQHQQQGQQQQQGHSSSFSALASMASSYLGNNSNSNSSYGGQQQANEYGRPQQNGQQQSNEYGRPQYGGNQNSNGQHESFNFSGNFSQQNNNGNQNRY
partner: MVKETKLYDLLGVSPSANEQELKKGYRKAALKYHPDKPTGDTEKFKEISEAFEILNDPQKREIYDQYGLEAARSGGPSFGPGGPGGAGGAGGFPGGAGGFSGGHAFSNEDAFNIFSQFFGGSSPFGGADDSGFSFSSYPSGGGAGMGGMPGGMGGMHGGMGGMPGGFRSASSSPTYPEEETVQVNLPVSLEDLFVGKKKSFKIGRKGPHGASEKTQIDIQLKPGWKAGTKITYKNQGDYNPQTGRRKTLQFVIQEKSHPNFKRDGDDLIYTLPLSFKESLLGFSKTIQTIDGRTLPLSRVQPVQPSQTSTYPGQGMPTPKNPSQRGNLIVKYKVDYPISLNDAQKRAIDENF

Variants of: B1
Details: with sis1_yeast SIS1, P25294

| Variant | effect of a mutation on the interaction |
| --- | --- |
| MDTDKLISEAESHFSQGNHAEAVAKLTSAAQSNPNDEQMSTIESLIQKIAGYVMDNRSGGSDASQDRAAGGGSSFMNTLMADSKGSSQTQLGKAALLATVMTHSSNKGSSNRGFDVGTVMSMLSGSGGGSQSMGASGLAALASQFFKSGNNSQGQGQGQGQGQGQGQGQGQGSFTALASLASSFMNSNNNNQQGQNQSSGGSSFGALASMASSFMHSNNNQNSNNSQQGYNQSYQNGNQNSQGYNNQQYQGGNGGYQQQQGQSGGAFSSLASMAQSYLGGGQTQSNQQQYNQQGQNNQQQYQQQGQNYQHQQQGQQQQQGHSSSFSALASMASSYLGNNSNSNSSYGGQQQANEYGRPQQNGQQQSNEYGRPQYGGNQNSNGQHESFNFSGNFSQQNNNGNQNRY [L94A] | decreasing interaction |
